Tests used:
[1] = biological target: Naegleria fowleri CNNM CBS-pair domain (N. fowleri); assay: ITC; details: enzyme
[2] = biological target: Drosophila melanogaster CNNM CBS-pair domain, GST-tagged (D. melanogaster); assay: ITC; VP-ITC, 20 °C, 20 mM Hepes pH 7.5, 100 mM NaCl, 5 mM TCEP; GST-CBS-pairs titrated with PRL; single site-binding model
Chain of Drosophila melanogaster CNNM CBS-pair domain, GST-tagged (D. melanogaster) (A0A0B7P9G0 362-515): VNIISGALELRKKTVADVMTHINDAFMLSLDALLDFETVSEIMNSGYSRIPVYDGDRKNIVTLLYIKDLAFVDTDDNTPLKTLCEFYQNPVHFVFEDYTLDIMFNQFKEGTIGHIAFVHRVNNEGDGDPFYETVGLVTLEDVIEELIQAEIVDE

Row | Substance | Ka [1] | Kd [1] | fold decrease of affinity against wild type [2]
1 | Naegleria fowleri PRL | 688000 M⁻¹ | 1.5 µM | 
2 | Drosophila melanogaster PRL C109D (from UniProt O61722 1-176) |  |  | < 2 fold
3 | Drosophila melanogaster PRL R143E (from UniProt O61722 1-176) (enzyme) |  |  | 20 fold

Reference: PMC10040874
